Read-outs that look alike come from different tables or passages of the source.

The target in experiment [1] is T1, cynomolgus monkey CD96, native, on primary cynomolgus monkey T cells (cynomolgus monkey, UniProt A0A2K5TWV6 22-569).
T1 construct: whole, on cells
T1 sequence: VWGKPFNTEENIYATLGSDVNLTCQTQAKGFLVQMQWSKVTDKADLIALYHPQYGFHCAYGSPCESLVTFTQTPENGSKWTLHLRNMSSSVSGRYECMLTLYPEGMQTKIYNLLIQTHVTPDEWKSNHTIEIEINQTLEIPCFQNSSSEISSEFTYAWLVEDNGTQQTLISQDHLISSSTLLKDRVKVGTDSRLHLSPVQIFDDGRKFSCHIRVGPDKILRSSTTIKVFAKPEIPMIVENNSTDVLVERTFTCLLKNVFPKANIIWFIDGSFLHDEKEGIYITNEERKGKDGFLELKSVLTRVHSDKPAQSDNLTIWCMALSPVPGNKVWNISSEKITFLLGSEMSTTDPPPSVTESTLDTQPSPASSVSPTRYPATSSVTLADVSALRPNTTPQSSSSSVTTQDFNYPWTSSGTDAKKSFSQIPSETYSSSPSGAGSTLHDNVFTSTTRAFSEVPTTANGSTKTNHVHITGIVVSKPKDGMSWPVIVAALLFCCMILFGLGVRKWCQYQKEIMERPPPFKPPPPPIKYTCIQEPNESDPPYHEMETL
The experiment can be described thus: flow cytometry on activated cynomolgus monkey T cells, donor 1. On the technique in general: In flow cytometry, cells or beads pass a laser one at a time.

The target of experiment [2] is T2, cynomolgus monkey CD96v2 expressed on cells (CHO cells; transiently transfected HEK cells) (cynomolgus monkey, UniProt A0A2K5TWV6 22-569).
T2 construct: the cell is named under assay; also called CHO-cyCD96; Cyno CD96v2
T2 sequence: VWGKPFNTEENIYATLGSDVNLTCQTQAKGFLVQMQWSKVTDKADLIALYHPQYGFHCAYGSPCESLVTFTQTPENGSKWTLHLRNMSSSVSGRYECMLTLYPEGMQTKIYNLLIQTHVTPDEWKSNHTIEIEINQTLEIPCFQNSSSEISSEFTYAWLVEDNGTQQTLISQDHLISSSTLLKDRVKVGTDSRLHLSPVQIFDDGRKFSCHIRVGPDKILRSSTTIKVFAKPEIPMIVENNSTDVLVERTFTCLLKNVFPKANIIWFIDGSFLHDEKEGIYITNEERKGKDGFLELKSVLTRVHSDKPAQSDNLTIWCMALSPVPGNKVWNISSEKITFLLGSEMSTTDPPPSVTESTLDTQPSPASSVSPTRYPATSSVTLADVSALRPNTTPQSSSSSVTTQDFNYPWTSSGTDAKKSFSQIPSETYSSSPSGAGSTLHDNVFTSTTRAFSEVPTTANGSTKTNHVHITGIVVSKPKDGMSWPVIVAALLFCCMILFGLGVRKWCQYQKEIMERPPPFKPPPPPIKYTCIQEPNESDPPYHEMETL
The experiment can be described thus: flow cytometry on transiently transfected HEK cells (Cyno CD96v2).

Experiment [3] deals with T2, cynomolgus monkey CD96v2 expressed on …. The description is as above. This is another data set of the same source.
Experiment [4] concerns the target T3, human CD96v1 on transiently transfected HEK cells (human, UniProt P40200 22-585).
T3 construct: whole, on cells
T3 sequence (looked up): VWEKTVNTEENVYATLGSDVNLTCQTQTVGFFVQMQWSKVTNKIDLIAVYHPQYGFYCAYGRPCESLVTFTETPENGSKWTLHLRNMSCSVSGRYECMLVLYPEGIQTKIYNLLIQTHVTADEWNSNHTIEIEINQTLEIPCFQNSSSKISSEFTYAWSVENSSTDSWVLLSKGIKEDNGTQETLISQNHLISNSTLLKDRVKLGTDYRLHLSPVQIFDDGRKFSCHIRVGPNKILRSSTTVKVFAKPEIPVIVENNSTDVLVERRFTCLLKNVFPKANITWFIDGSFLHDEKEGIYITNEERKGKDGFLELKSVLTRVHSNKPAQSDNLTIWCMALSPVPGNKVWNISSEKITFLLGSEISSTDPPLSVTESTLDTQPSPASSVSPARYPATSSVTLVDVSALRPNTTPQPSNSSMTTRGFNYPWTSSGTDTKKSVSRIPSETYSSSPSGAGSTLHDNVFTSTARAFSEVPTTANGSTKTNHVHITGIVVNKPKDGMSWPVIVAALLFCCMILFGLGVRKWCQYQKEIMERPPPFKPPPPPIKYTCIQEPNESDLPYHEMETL
The experiment is described as follows: flow cytometry on transiently transfected HEK cells (Human CD96v1).

For experiment [5], the target named is T3, human CD96v1 on transiently transfected …. The experiment is described as above. This is another data set of the same source.
The target of experiment [6] is T4, human CD96v2 expressed on cells (CHO cells; transiently transfected HEK cells) (human, UniProt P40200-2 22-569).
T4 construct: whole, on cells; the cell is named under assay; also called CHO-huCD96; hCD96v2
T4 sequence (looked up): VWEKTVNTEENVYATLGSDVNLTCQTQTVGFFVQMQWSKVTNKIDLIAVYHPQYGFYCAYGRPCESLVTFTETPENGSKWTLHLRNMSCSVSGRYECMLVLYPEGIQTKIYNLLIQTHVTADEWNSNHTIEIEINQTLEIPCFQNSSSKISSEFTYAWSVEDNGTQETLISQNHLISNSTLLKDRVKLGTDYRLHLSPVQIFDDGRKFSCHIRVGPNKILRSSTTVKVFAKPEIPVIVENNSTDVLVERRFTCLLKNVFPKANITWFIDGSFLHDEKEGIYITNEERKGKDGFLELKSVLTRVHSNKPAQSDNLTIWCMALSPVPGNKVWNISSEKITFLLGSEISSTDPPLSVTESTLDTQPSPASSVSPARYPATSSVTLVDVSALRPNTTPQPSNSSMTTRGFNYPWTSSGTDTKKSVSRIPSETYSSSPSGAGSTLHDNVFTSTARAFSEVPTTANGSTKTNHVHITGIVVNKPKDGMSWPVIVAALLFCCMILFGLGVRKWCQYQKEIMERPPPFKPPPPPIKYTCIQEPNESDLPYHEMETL
The experiment can be described thus: flow cytometry on transiently transfected HEK cells; upper end of range, n = 3.

Experiment [7] concerns the target T2, cynomolgus monkey CD96v2 expressed on …. The experiment is described as above.
Experiment [8] addresses T3, human CD96v1 on transiently transfected …. Described as above.
Experiment [9] has as its target T5, cynomolgus monkey CD96v1 on transiently transfected HEK cells (cynomolgus monkey).
T5 construct: whole, on cells; also called Cyno CD96v1
The experiment is described as above.

In experiment [10] the target is T6, blood derived cynomolgus monkey CD96v2 on transiently transfected HEK cells (cynomolgus monkey).
T6 construct: also called Blood derived Cyno CD96v2
The experiment is described as above.

Experiment [11] has as its target T6, blood derived cynomolgus monkey CD96v2 …. The experiment is described as follows: flow cytometry on transiently transfected HEK cells (Cyno blood derived CD96v2).
Experiment [12] deals with T1, cynomolgus monkey CD96, native, on …. The experiment is described as follows: flow cytometry on activated cynomolgus monkey CD3+ T cells; mean of 3 samples; cynomolgus monkey CD3+ T cells activated with anti-CD2/3/28 beads for 17 days; mean of 3 samples.

B1: 42Y073-86F08-66 (antibody)
heavy: not shown
light: DIQLTQSPSSLSASVGDRVTITCRASQSISSYLNWYQQKPGKAPKLLIYAASSLQSGVPSRFSGSGSGTDFTLTISSLQPEDFATYYCQQVLHTITFGGGTKVEIKRTVAAPSVFIFPPSDEQLKSGTASVVCLLNNFYPREAKVQWKVDNALQSGNSQESVTEQDSKDSTYSLSSTLTLSKADYEKHKVYACEVTHQGLSSPVTKSFNRGEC
notes: also called GSK 6097608; GSK6097608
As a reminder, the EC50 (read off the curve) is the concentration giving half of the maximal effect. Usually EC50 stands for the concentration that produces a half-maximal response. With B1, the “EC50 (read off the curve)” value in [1] was about 0.05 nM; in experiment [2] it was about 6 nM; in experiment [3], about 10 nM; in experiment [4], about 3 nM; in [5], about 6 nM; in [11], about 5 nM. The EC50 was determined as 8.78 nM in experiment [6]; 11.2 nM in experiment [7]; 8.89 nM in experiment [8]; 12.3 nM in experiment [9]; 10.2 nM in experiment [10]; 0.0766 nM in experiment [12].

The values above are taken from US12528864 (GlaxoSmithKline, dated 2026).
